Test results from publication PMC8411024 (Biomolecules & Therapeutics, 2021).

Target: T1, Human LRP6 E1E2 (21-630) (human, UniProt O75581 21-630)
T1 sequence (looked up): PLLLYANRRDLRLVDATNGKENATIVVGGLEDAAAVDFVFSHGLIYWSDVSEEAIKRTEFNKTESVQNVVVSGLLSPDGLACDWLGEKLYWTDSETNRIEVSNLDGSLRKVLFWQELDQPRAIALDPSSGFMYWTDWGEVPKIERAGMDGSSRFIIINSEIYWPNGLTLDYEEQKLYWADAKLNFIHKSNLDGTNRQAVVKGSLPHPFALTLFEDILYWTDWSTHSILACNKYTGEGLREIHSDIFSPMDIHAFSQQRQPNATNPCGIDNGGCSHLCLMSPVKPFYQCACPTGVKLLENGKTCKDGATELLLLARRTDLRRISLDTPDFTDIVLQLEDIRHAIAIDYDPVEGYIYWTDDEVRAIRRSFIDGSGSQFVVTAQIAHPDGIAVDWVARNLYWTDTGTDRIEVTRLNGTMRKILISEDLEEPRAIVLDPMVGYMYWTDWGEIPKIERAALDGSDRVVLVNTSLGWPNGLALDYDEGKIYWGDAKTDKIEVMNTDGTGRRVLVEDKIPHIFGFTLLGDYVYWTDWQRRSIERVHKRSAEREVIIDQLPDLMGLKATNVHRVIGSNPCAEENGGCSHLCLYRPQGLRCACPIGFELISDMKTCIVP
Experiment: HDX-MS

binding result: binds
B1: SOSTΔ (24-169) (domain or fragment, human, UniProt Q9BQB4 24-169, looked up)
chain: QGWQAFKNDATEIIPELGEYPEPPPELENNKTMNRAENGGRPPHHPFETKDVSEYSCRELHFTRYVTDGPCRSAKPVTELVCSGQCGPARLLPNAIGRGKWWRPSGPDFRCIPDRYRAQRVQLLCPGGEAPRARKVRLVASCKCKR
